Molecular target: T1, PepTag peptide C1
T1 chain: PLSRTLSVAAK

B1: recombinant DESC1 polypeptide expressed as a fusion protein with an amino-terminal His tag (pcDNA4/HisMax) (protein)
chain: MYRPDVVRARKRVCWEPWVIGLVIFISLIVLAVCIGLTVHYVRYNQKKTYNYYSTLSFTTDKLYAEFGREASNNFTEMSQRLESMVKNAFYKSPLREEFVKSQVIKFSQQKHGVLAHMLLICRFHSTEDPETVDKIVQLVLHEKLQDAVGPPKVDPHSVKIKKINKTETDSYLNHCCGTRRSKTLGQSLRIVGGTEVEEGEWPWQASLQWDGSHRCGATLINATWLVSAAHCFTTYKNPARWTASFGVTIKPSKMKRGLRRIIVHEKYKHPSHDYDISLAELSSPVPYTNAVHRVCLPDASYEFQPGDVMFVTGFGALKNDGYSQNHLRQAQVTLIDATTCNEPQAYNDAITPRMLCAGSLEGKTDACQGDSGGPLVSSDARDIWYLAGIVSWGDECAKPNKPGVYTRVTALRDWITSKTGI
  PepTag Protease Assay: proteolysis of dye-linked peptide, agarose gel electrophoresis: demonstrate proteolytic cleavage of C1 peptide by fractions containing DESC1 polypeptide eluted from the ProBond resin

— patent US7166427
